Target: T1, huCdc7 fused to DNA-binding domain of Gal4 (human, UniProt P04386 1-147; O00311 1-574, limits assumed)
T1 construct: Yeast two-hybrid bait in strain CG1945; also called huCdc7 (two-hybrid bait)
Assay: yeast two-hybrid assay, lacZ activity
Description: In order to determine the region on H37 protein essential for binding with huCdc7, a series of deletion derivatives of H37 at N- and C-terminals as shown in FIG. 7 was prepared, each of them was expressed in yeast as a fusion protein with Gal4 activated domain and an interaction of each deletion derivative with huCdc7 was investigated by means of a two-hybrid assay. […] However, when 50 amino acids at N-terminal were further deleted whereupon the H37 motif C was deleted, an interaction with huCdc7 was completely lost (ΔN3).

interaction relative to the full-length clone | binding result | Binder
~10% | – | H37 deletion derivative ΔB fused to Gal4 activation domain (other, not shown: small tags and cut ends, The range is worked out from the printed count of deleted residues and a length of 674; also called deltaB) MNSGAMRIHSKGHFQGGIQVKNEKNRPSLKSLKTDNRPEKSKCKPLWGKVFYLDLPSVTISEKLQKDIKDLGGRVEEFLSKDISYLISNKKEAKFAQTLGRISPVPSPESAYTAETTSPHPSHDGSSFKSPDTVCLSRGKLLVEKAIKDHDFIPSNSILSNALSWGVKILHIDDIRYYIEQKKKELYLLKKSSTSVRDGGKRVGSGAQKTRTGRLKKPFVKVEDMSQLYRPFYLQLTNMPFINYSIQKPCSPFDVDKPSSMQKQTQVKLRIQTDGDKYGGTSIQLQLKEKKKKGYCECCLQKYED
– | no binding | H37 deletion derivative ΔP1 fused to Gal4 activation domain (other, not shown: small tags and cut ends) MNSGAMRIHSKGHFQGGIQVKNEKNRPSLKSLKTDNRPEKSKCKPLWGKVFYLDLPSVTISEKLQKDIKDLGGRVEEFLSKDISYLISNKKEAKFAQTLGRISPVPSPESAYTAETTSPHPSHDGSSFKSPDTVCLSRGKLLVEKAIKDHDFIPSNSILSNALSWGVKILHIDDIRYYIEQKKKELYLLKKSSTSVRDGGKRVGSGAQKTRTGRLKKPFVKVEDMSQLYRPFYLQ
– | no binding | H37 deletion derivative ΔN3 fused to Gal4 activation domain (other, not shown: small tags and cut ends, The range is worked out from the printed counts of deleted residues and a length of 674) LETHLLSEQHRNFAQSNQYQVVDDIVSKLVFDFVEYEKDTPKKKRIKYSVGSLSPVSASVLKKTEQKEKVELQHISQKDCQEDDTTVKEQNFLYKETQETEKKLLFISEPIPHPSNELRGLNEKMSNKCSMLSTAEDDIRQNFTQLPLHKNKQECILDISEHTLSENDLEELRVDHYKCNIQASVHVSDFSTDNSGSQPKQKSDTVLFPAKDLKEKDLHSIFTHDSGLITINSSQEHLTVQAKAPFHTPPEEPNECDFKNMDSLPSGKIHRKVKIILGRNRKENLEPNAEFDKRTEFITQEENRICSSPVQSLLDLFQTSEEKSEFLGFTSYTEKSGICNVLDIWEEENSDNLLTAFFSSPSTSTFTGF

From patent US6897054 (JAPAN SCIENCE AND TECHNOLOGY AGENCY, dated 2005)
